From patent USRE48558 (Genentech, dated 2021)
Where no end group is shown, it is not given here.

Key:
[1] = molecular target: T1, extracellular domain of human CD79b (human, UniProt P40259 29-159); assay: phage selection, Fab on phage, plate-bound huCD79becd
T1 construct: also called huCD79becd; huCD79b-ecd
T1 sequence: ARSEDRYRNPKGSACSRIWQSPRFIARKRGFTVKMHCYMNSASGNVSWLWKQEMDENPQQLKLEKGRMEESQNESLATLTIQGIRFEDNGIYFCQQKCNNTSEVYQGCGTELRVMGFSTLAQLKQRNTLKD

[2] = molecular target: T2, human CD79b on the cell surface (human, UniProt P40259 29-229); assay: FACS on DoHH-2 cells, Fab, PE anti-human kappa detection
T2 construct: In the Scatchard analysis the BJAB line also stably expressed cynomolgus CD79b; also called PRO36249; endogenous human CD79b on DoHH-2, BJAB and BJAB-luciferase cells
T2 sequence: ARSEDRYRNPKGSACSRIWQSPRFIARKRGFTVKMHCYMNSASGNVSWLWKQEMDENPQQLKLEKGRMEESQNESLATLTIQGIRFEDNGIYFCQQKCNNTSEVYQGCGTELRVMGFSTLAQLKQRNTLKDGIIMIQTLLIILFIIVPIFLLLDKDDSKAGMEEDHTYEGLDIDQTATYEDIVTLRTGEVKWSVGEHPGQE

[3] = molecular target: T3, extracellular domain of human CD79b fused to Fc (human, UniProt P40259 29-159); assay: SPR (Biacore), Fab against MA79b Fab, immobilized huCD79becd-Fc
T3 construct: also called huCD79becd-Fc; huCD79b-Fc; not shown: Fc part of the fusion
T3 sequence: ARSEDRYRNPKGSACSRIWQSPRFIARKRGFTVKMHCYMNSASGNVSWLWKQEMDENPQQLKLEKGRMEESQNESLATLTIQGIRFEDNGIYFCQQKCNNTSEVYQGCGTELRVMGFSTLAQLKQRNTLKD

[4] = molecular target: T3, extracellular domain of human CD79b …; assay: SPR (Biacore), IgG compared with Fab, immobilized huCD79becd-Fc
[5] = molecular target: T2, human CD79b on the cell surface; assay: Scatchard analysis, 125I-labelled IgG competed with unlabelled IgG on BJAB cells stably expressing cynomolgus CD79b and endogenous human CD79b
[6] = molecular target: T4, 16 amino acid peptide containing the epitope for MA79b (ARSEDRYRNPKGSACK) (human, also: biotinylated, site not given here); assay: SPR (Biacore), biotinylated peptide captured on streptavidin chip
T4 construct: Synthetic
T4 peptide: ARSEDRYRNPKGSACK

[7] = molecular target: T1, extracellular domain of human CD79b; assay: SPR (Biacore), IgG, immobilized huCD79becd
[8] = molecular target: T2, human CD79b on the cell surface; assay: Scatchard analysis, IgG, BJAB cells stably expressing cynomolgus CD79b and endogenous human CD79b
[9] = molecular target: T2, human CD79b on the cell surface; assay: FACS on BJAB-luciferase cells, PE anti-human detection
[10] = molecular target: T1, extracellular domain of human CD79b; assay: FACS analysis, IgG (data not shown); reference not given
[11] = molecular target: T1, extracellular domain of human CD79b; assay: SPR (Biacore), IgG, immobilized huCD79becd; reference not given

B1: huMA79b H3-10 (Fab) (Fab, name in Kabat numbering, V domains shown)
VH: EVQLVESGGGLVQPGGSLRLSCAASGYTFSSYWIEWVRQAPGKGLEWVGEILPGGGDTNYNEIFKGRFTISADTSKNTAYLQMNSLRAEDTAVYYCTRRVPIRLDYWGQGTLVTVSS
VL: DIQMTQSPSSLSASVGDRVTITCKASQSVDYDGDSFLNWYQQKPGKAPKLLIYAASNLESGVPSRFSGSGSGTDFTLTISSLQPEDFATYYCQQSNEDPLTFGQGTKVEIKR
notes: Fab on phage in the selection; purified Fab in FACS; rest as huMA79b graft; also called H3-10 mutation
B1: binds [1]; binds [2].

B2: huMA79b L2-2 (Fab) (Fab, name in Kabat numbering, V domains shown)
VH: EVQLVESGGGLVQPGGSLRLSCAASGYTFSSYWIEWVRQAPGKGLEWVGEILPGGGDTNYNEIFKGRFTISADTSKNTAYLQMNSLRAEDTAVYYCTRRVPVYFDYWGQGTLVTVSS
VL: DIQMTQSPSSLSASVGDRVTITCKASQSVDYDGDSFLNWYQQKPGKAPKLLIYAARKLGRGVPSRFSGSGSGTDFTLTISSLQPEDFATYYCQQSNEDPLTFGQGTKVEIKR
notes: Fab on phage in the selection; purified Fab in FACS and Biacore; rest as huMA79b graft; also called L2-2 mutation; MA79b-grafted humanized antibody variant L2-2
For B2, the “fold improvement in monomeric binding compared to MA79b” value [3] was 5 fold.

B3: huMA79b graft variant H1-1 (Fab) (Fab, name in Kabat numbering, V domains shown)
VH: EVQLVESGGGLVQPGGSLRLSCAASGYPFNRYWINWVRQAPGKGLEWVGEILPGGGDTNYNEIFKGRFTISADTSKNTAYLQMNSLRAEDTAVYYCTRRVPVYFDYWGQGTLVTVSS
VL: DIQMTQSPSSLSASVGDRVTITCKASQSVDYDGDSFLNWYQQKPGKAPKLLIYAASNLESGVPSRFSGSGSGTDFTLTISSLQPEDFATYYCQQSNEDPLTFGQGTKVEIKR
notes: Fab on phage in the selection; purified Fab in FACS; rest as huMA79b graft; also called H1-1 mutation
B3: binds [1]; binds [2].

B4: murine anti-CD79b monoclonal antibody MA79b (antibody, V domains shown)
VL: DIVLTQSPASLAVSLGQRATISCKASQSVDYDGDSFLNWYQQKPGQPPKLFIYAASNLESGIPARFSGSGSGTDFTLNIHPVEEEDAATYYCQQSNEDPLTFGAGTELELKR
VH: EVQLQQSGAELMKPGASVKISCKATGYTFSSYWIEWVKQRPGHGLEWIGEILPGGGDTNYNEIFKGKATFTADTSSNTAYMQLSSLTSEDSAVYYCTRRVPVYFDYWGQGTSVTVSS
notes: Murine IgG; 125I-labelled in the Scatchard analysis; also called murine CD79b antibody; original mouse anti-CD79b monoclonal antibody
For B4, the “fold avidity component (IgG against Fab of MA79b)” value [4] was 100 fold and the Kd [5] was 0.63 nM.

B5: MA79b-grafted humanized antibody variant L2/H3 (antibody, name in Kabat numbering, V domains shown)
VH: EVQLVESGGGLVQPGGSLRLSCAASGYTFSSYWIEWVRQAPGKGLEWVGEILPGGGDTNYNEIFKGRFTISADTSKNTAYLQMNSLRAEDTAVYYCTRRVPIRLDYWGQGTLVTVSS
VL: DIQMTQSPSSLSASVGDRVTITCKASQSVDYDGDSFLNWYQQKPGKAPKLLIYAARKLGRGVPSRFSGSGSGTDFTLTISSLQPEDFATYYCQQSNEDPLTFGQGTKVEIKR
notes: 125I-labelled in the Scatchard analysis; also called huMA79b L2/H3
For B5, the binding result [6] was “binds” and the Kd [5] was 0.52 nM.

B6: MA79b-grafted humanized antibody variant 18 (antibody, human IgG1, kappa)
light: DIQLTQSPSSLSASVGDRVTITCKASQSVDYDGDSFLNWYQQKPGKAPKLLIYAASNLESGVPSRFSGSGSGTDFTLTISSLQPEDFATYYCQQSNEDPLTFGQGTKVEIKRTVAAPSVFIFPPSDEQLKSGTASVVCLLNNFYPREAKVQWKVDNALQSGNSQESVTEQDSKDSTYSLSSTLTLSKADYEKHKVYACEVTHQGLSSPVTKSFNRGEC
heavy: not shown
notes: IgG; also called huMA79b.v18; MA79b.v18
For B6, the “fold improvement in dimeric binding compared to variant 17” value [7] was 2 fold.

B7: MA79b-grafted humanized antibody variant 17 (antibody, human IgG1, kappa, V domains shown)
VH: EVQLVESGGGLVQPGGSLRLSCAASGYTFSSYWIEWVRQAPGKGLEWIGEILPGGGDTNYNEIFKGRATFSADTSKNTAYLQMNSLRAEDTAVYYCTRRVPVYFDYWGQGTLVTVSS
VL: DIQLTQSPSSLSASVGDRVTITCKASQSVDYDGDSFLNWYQQKPGKAPKLLIYAASNLESGVPSRFSGSGSGTDFTLTISSLQPEDFATYYCQQSNEDPLTFGQGTKVEIKR
notes: IgG; also called huMA79b.v17
B7: binds [7].

B8: MA79b-grafted humanized antibody variant 32 (antibody, human IgG1, kappa, V domains shown)
VH: EVQLVESGGGLVQPGGSLRLSCAASGYTFSSYWIEWVRQAPGKGLEWIGEILPGGGDTNYNEIFKGRATFSADTSKNTAYLQMNSLRAEDTAVYYCTRRVPIRLDYWGQGTLVTVSS
VL: DIQLTQSPSSLSASVGDRVTITCKASQSVDYSGDSFLNWYQQKPGKAPKLFIYAASNLESGVPSRFSGSGSGTDFTLTISSLQPEDFATYYCQQSNEDPLTFGQGTKVEIKR
notes: also called huMA79b.v32; MA79b.v32
B8 gave a Kd [8] of 0.24 nM.

B9: MA79b-grafted humanized antibody variant 28 (antibody, human IgG1, kappa)
light: DIQLTQSPSSLSASVGDRVTITCKASQSVDYEGDSFLNWYQQKPGKAPKLLIYAASNLESGVPSRFSGSGSGTDFTLTISSLQPEDFATYYCQQSNEDPLTFGQGTKVEIKRTVAAPSVFIFPPSDEQLKSGTASVVCLLNNFYPREAKVQWKVDNALQSGNSQESVTEQDSKDSTYSLSSTLTLSKADYEKHKVYACEVTHQGLSSPVTKSFNRGEC
heavy: not shown
notes: IgG; also called huMA79b.v28
For B9, the Kd [8] was 0.44 nM.

B10: thio huMA79b.v28-HC(A118C)-MC-MMAF (antibody, human IgG1, kappa)
heavy: not shown
light: DIQLTQSPSSLSASVGDRVTITCKASQSVDYEGDSFLNWYQQKPGKAPKLLIYAASNLESGVPSRFSGSGSGTDFTLTISSLQPEDFATYYCQQSNEDPLTFGQGTKVEIKRTVAAPSVFIFPPSDEQLKSGTASVVCLLNNFYPREAKVQWKVDNALQSGNSQESVTEQDSKDSTYSLSSTLTLSKADYEKHKVYACEVTHQGLSSPVTKSFNRGEC
modifications: MC-MMAF on the engineered Cys at EU position 118 (sequential 118; Kabat 114)
notes: Cysteine engineered antibody drug conjugate
B10: binds [9].

B11: thio huMA79b.v28-HC(A118C)-MCvcPAB-MMAE (antibody, human IgG1, kappa)
heavy: not shown
light: DIQLTQSPSSLSASVGDRVTITCKASQSVDYEGDSFLNWYQQKPGKAPKLLIYAASNLESGVPSRFSGSGSGTDFTLTISSLQPEDFATYYCQQSNEDPLTFGQGTKVEIKRTVAAPSVFIFPPSDEQLKSGTASVVCLLNNFYPREAKVQWKVDNALQSGNSQESVTEQDSKDSTYSLSSTLTLSKADYEKHKVYACEVTHQGLSSPVTKSFNRGEC
modifications: MC-val-cit-PAB-MMAE on the engineered Cys at EU position 118 (sequential 118; Kabat 114)
notes: Cysteine engineered antibody drug conjugate; also called thio huMA79b.v28-HC(A118C)-MC-val-cit-PAB-MMAE
B11: binds [9].

B12: MA79b-grafted humanized antibody (IgG) (antibody, V domains shown)
VH: EVQLVESGGGLVQPGGSLRLSCAASGYTFSSYWIEWVRQAPGKGLEWVGEILPGGGDTNYNEIFKGRFTISADTSKNTAYLQMNSLRAEDTAVYYCTRRVPVYFDYWGQGTLVTVSS
VL: DIQMTQSPSSLSASVGDRVTITCKASQSVDYDGDSFLNWYQQKPGKAPKLLIYAASNLESGVPSRFSGSGSGTDFTLTISSLQPEDFATYYCQQSNEDPLTFGQGTKVEIKR
notes: Expressed as IgG; also called huMA79b graft; huMA79b-graft
For B12, the “fold reduction in binding affinity” value [10] was greater than 100 fold and the “fold loss of affinity” value [11] was greater than 50 fold.
